Reference: patent EP0969015A2, “Peptide diagnostic markers for human disorders” (Ortho-Clinical Diagnostics, Inc., priority 1998, dated 2000)

Assays:
[1] = Stability of peptides in urine samples; details: compared with the gluten/casein related peptides; not studied in a systematic manner
[2] = relative to morphine; cited from earlier work

Substance	stability in urine [1]	opiate activity [2] [times]
NH4-Tyr AlaPheGluValValGly-COOH (H-YAFEVVG-OH) [deltorphin II]	more stable in urine than the gluten/casein related peptides	–
NH4-TyrAlaPheGlyTyrProSer-COOH [dermorphin]	more stable in urine than the gluten/casein related peptides	1000
